US20220411536A1 (NUMAB THERAPEUTICS, published 2022)

Assays:
[1] = molecular target: T1, Fc-tagged human PD-L1 extracellular domain (SinoBiological, cat. 10084-H02H) (human, UniProt Q9NZQ7 19-238); experiment: SPR
T1 construct: extracellular domain; also called hPD-L1; not shown: Fc tag of the bought protein

[2] = molecular target: T1, Fc-tagged human PD-L1 extracellular …; experiment: SPR, captured Fc-PD-L1 ECD, scFv analyte, kinetic
[3] = molecular target: T1, Fc-tagged human PD-L1 extracellular …; experiment: SPR, captured Fc-PD-L1 ECD, scFv analyte, steady state
[4] = molecular target: T2, CD3e on Jurkat PD-1 NFAT reporter T cells or on T cells of human PBMCs (human, UniProt P07766 23-207); experiment: cell-based or functional assay
[5] = molecular target: T2, CD3e on Jurkat PD-1 NFAT reporter T …; experiment: cell-based or functional assay; remark: listed apart in the source
[6] = molecular target: T2, CD3e on Jurkat PD-1 NFAT reporter T …; experiment: cell-based or functional assay; remark: listed apart in the source
[7] = molecular target: T3, recombinant human IL-23R (custom-made by Trenzyme) (human, UniProt Q5VWK5 24-355); experiment: SPR, immobilised IL-23R
T3 sequence (looked up): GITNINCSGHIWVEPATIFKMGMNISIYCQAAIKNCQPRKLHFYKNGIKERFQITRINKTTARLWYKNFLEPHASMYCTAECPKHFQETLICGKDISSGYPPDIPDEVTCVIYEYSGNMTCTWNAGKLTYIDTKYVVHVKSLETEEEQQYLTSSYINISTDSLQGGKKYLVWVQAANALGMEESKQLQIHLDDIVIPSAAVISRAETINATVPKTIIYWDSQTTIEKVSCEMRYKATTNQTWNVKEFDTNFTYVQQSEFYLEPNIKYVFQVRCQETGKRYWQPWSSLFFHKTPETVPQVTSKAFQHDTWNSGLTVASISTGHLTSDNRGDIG

[8] = molecular target: T4, recombinant human Her2 ECD (SinoBiological, cat. 10004-HCCH) (human, UniProt P04626 23-652); experiment: SPR, immobilised Her2 ECD
T4 construct: extracellular domain; bought protein

[9] = molecular target: T5, human HER2 expressed on cells (SK-OV3, MCF-7, HCC1954, HCC827) (human, UniProt P04626 23-1255); experiment: flow cytometry, MCF-7 cells
T5 construct: whole, on cells

human serum albumin = molecular target: T6, human serum albumin (human, UniProt P02768 25-609); experiment: SPR, immobilised HSA, pH 5.5
T6 construct: also called HSA; human SA

mouse serum albumin = molecular target: T7, mouse serum albumin (mouse, UniProt P07724 25-608); experiment: SPR, immobilised MSA, pH 5.5
T7 construct: also called MSA; mouse SA

[10] = molecular target: T5, human HER2 expressed on cells (SK-OV3, …); experiment: flow cytometry, SK-OV3 cells
[11] = molecular target: T1, Fc-tagged human PD-L1 extracellular …; experiment: SPR, captured Fc-PD-L1 ECD, kinetic
[12] = molecular target: T1, Fc-tagged human PD-L1 extracellular …; experiment: SPR, captured Fc-PD-L1 ECD, steady state
[13] = molecular target: T8, recombinant human CD3E ECD (SinoBiological, cat. 10977-H08H) (human, UniProt P07766 23-126); experiment: SPR, immobilised CD3e ECD, two-state model
T8 construct: extracellular domain; bought protein; also called CD3s

[14] = molecular target: T5, human HER2 expressed on cells (SK-OV3, …); experiment: flow cytometry, SK-OV3 cells, no competitor
[15] = molecular target: T5, human HER2 expressed on cells (SK-OV3, …); experiment: flow cytometry, IFNy-stimulated HCC827 cells
[16] = molecular target: T5, human HER2 expressed on cells (SK-OV3, …); experiment: flow cytometry, IFNy-stimulated HCC1954 cells
[17] = molecular target: T8, recombinant human CD3E ECD …; experiment: SPR, immobilised CD3e ECD, two-state model (ka1)
[18] = molecular target: T8, recombinant human CD3E ECD …; experiment: SPR, immobilised CD3e ECD, two-state model (kd1)
[19] = molecular target: T5, human HER2 expressed on cells (SK-OV3, …); experiment: flow cytometry, SK-OV3 cells, competitor 50 nM pertuzumab
[20] = molecular target: T9, human PD-L1 expressed on cells (CHO-PD-L1, HCC1954, HCC827) (human, UniProt Q9NZQ7 19-290); experiment: flow cytometry, inhibition of biotinylated PD-1 binding to HCC827 cells
T9 construct: whole, on cells; also called hPD-L1; PD-L1 expressing cells

[21] = molecular target: T9, human PD-L1 expressed on cells …; experiment: flow cytometry, inhibition of biotinylated PD-1 binding to HCC1954 cells
[22] = molecular target: T1, Fc-tagged human PD-L1 extracellular …; experiment: SPR, captured Fc-PD-L1 ECD, kinetic; kinetic analysis; the patent holds the steady state KD (3.47E-07 M) for the valid one
[23] = molecular target: T4, recombinant human Her2 ECD …; experiment: SPR, human Her-2
[24] = molecular target: unidentified antigen on CHO PD-L1 cells bound by pertuzumab (the filing speculates hamster HER2); experiment: flow cytometry, CHO PD-L1 cells (residual binding)
[25] = molecular target: T5, human HER2 expressed on cells (SK-OV3, …); experiment: flow cytometry, SK-OV3 cells, competitor 50 nM trastuzumab

B1: PRO1434 (scFv, V domains shown)
VH: QVQLQESGPGLVKPSETLSLTCKVSGFSFSSGYDMCWIRQPPGKGLEWIGCVVAGSVDITYYASWAKGRVTISVDSSKNQFSLKLSSVTAADTAVYYCARKDAYSDAFNLWGQGTLVTVSS
VL: DIQMTQSPSSLSASVGDRVTITCQASQSINDYLAWYQQKPGKAPKLLIYKASTLASGVPSRFSGSGSGTDFTLTISSLQPEDFATYYCQAAYIITDIDNVFGTGTKVTVLG
notes: also called 33-03-G02 VL-Q108A/G109A
fold reduction of affinity vs PRO830 [1]: 6500 fold
Kd [2]: 492 nM
koff [2]: 0.535 s⁻¹
kon [2]: 1.09e+06 M⁻¹ s⁻¹
Kd [3]: 487 nM

B2: PRO1543 (multispecific antibody)
chain 1: not shown
chain 2: DIQMTQSPSSLSASVGDRVTITCQASQSINDYLAWYQQKPGKAPKLLIYKASTLASGVPSRFSGSGSGTDFTLTISSLQPEDFATYYCQAAYIITDIDNVFGTGTKVTVLGGGGGSGGGGSGGGGSGGGGSQVQLQESGPGLVKPSETLSLTCKVSGFSFSSGYDMCWIRQPPGKGLEWIGCVVAGSVDITYYASWAKGRVTISVDSSKNQFSLKLSSVTAADTAVYYCARKDAYSDAFNLWGQGTLVTVSSGGGGSGGGGSEVQLVESGGGLVQPGGSLRLSCAASGFSLSSYDMSWVRQAPGKGLAWIGASYASGPTYYASWAKGRFTISRDNSKNTVYLQMNSLRAEDTATYFCARGGWTGTSHSNIWGQGTLVTVSSGGGSGGGSEVQLVESGGGLVQPGGSLRLSCAASGFSFSSSYWICWVRQAPGKCLEWVGCVFTGDGTTYYASWAKGRFTISRDNSKNTVYLQMNSLRAEDTATYFCARPVSVYYYGMDLWGQGTLVTVSS
notes: also called trastuzumab-based MATCH4
IC50, NFAT reporter, CHO-PD-L1 (A2 clone) cells [4]: 29.2 nM
IC50, NFAT reporter, HCC1954 cells [4]: 0.402 nM
IC50, NFAT reporter, HCC1954 cells, + nivolumab [4]: 0.125 nM
rel. max. activation vs PRO1497, NFAT reporter, HCC1954 cells [4]: 102%
rel. max. activation vs PRO1497 on HCC1954, NFAT reporter, CHO-PD-L1 (A2 clone) cells [4]: 62%
T cell activation IC50, PBMC with HCC827 cells [5]: 0.136 nM
T cell activation IC50, PBMC with HCC1954 cells [5]: 0.049 nM
target cell killing IC50, 16 h, HCC1954 cells [6]: 0.00023 nM
target cell killing IC50, 16 h, MCF-7 cells [6]: 0.00311 nM
binding result [7]: no binding (tested: 90 nM highest concentration)
Kd [8]: 0.406 nM
koff [8]: 6.26e-05 s⁻¹
kon [8]: 154000 M⁻¹ s⁻¹
EC50 [9]: 28.6 nM
Kd (human serum albumin): 0.81 nM
koff (human serum albumin): 0.000118 s⁻¹
kon (human serum albumin): 145000 M⁻¹ s⁻¹
Kd (mouse serum albumin): 19.5 nM
koff (mouse serum albumin): 0.00117 s⁻¹
kon (mouse serum albumin): 60200 M⁻¹ s⁻¹
EC50 [10]: 3.32 nM
koff [11]: 0.000367 s⁻¹
kon [11]: 17600 M⁻¹ s⁻¹
Kd [12]: 347 nM
KD1 [13]: 28.5 nM
Kd [13]: 15.7 nM
kd2 [13]: 0.00503 s⁻¹
EC50 [14]: 4.09 nM
EC50 [15]: 3.9 nM
EC50 [16]: 27.8 nM
kon [17]: 190000 M⁻¹ s⁻¹
koff [18]: 0.00542 s⁻¹
EC50 [19]: 4.16 nM
IC50 [20]: 59.2 µg/mL
IC50 [21]: 0.601 µg/mL
Kd [22]: 20.9 nM

B3: PRO1895 (multispecific antibody)
chain 1: DIQMTQSPSSLSASVGDRVTITCKASQDVSIGVAWYQQKPGKAPKLLIYSASYRYTGVPSRFSGSGSGTDFTLTISSLQPEDFATYYCQQYYIYPYTFGCGTKVTVLGGGGGSGGGGSGGGGSGGGGSEVQLVESGGGLVQPGGSLRLSCAASGFTFTDYTMDWVRQAPGKCLEWVADVNPNSGGSIYNQRFKGRFTLSVDRSKNTLYLQMNSLRAEDTAVYYCARNLGPSFYFDYWGQGTLVTVSSGGGGSGGGGSDVVMTQSPSSLSASVGDRVTITCQASQIISSRSAWYQQKPGQPPKLLIYQASKLASGVPSRFSGSGSGTDFTLTISSLQPEDFATYYCQCTYIDSNFGAFGCGTKLTVLGGGSGGSDIQMTQSPSSLSASVGDRVTITCQSSQSVFSNNYLAWFQQKPGQSPKRLIYSASTLASGVPSRFSGSGSGTDFTLTISSLQPEDFATYYCLGSYACSSADCYVFGTGTKVTVLG
chain 2: DIQMTQSPSSLSASVGDRVTITCQASQSINDYLAWYQQKPGKAPKLLIYKASTLASGVPSRFSGSGSGTDFTLTISSLQPEDFATYYCQAAYIITDIDNVFGTGTKVTVLGGGGGSGGGGSGGGGSGGGGSQVQLQESGPGLVKPSETLSLTCKVSGFSFSSGYDMCWIRQPPGKGLEWIGCVVAGSVDITYYASWAKGRVTISVDSSKNQFSLKLSSVTAADTAVYYCARKDAYSDAFNLWGQGTLVTVSSGGGGSGGGGSEVQLVESGGGLVQPGGSLRLSCAASGFSLSSYDMSWVRQAPGKGLAWIGASYASGPTYYASWAKGRFTISRDNSKNTVYLQMNSLRAEDTATYFCARGGWTGTSHSNIWGQGTLVTVSSGGGSGGGSEVQLVESGGGLVQPGGSLRLSCAASGFSFSSSYWICWVRQAPGKCLEWVGCVFTGDGTTYYASWAKGRFTISRDNSKNTVYLQMNSLRAEDTATYFCARPVSVYYYGMDLWGQGTLVTVSS
notes: also called pertuzumab-based MATCH4
Kd [23]: 0.414 nM
koff [23]: 8.11e-05 s⁻¹
kon [23]: 196000 M⁻¹ s⁻¹
T cell activation IC50, PBMC with HCC827 cells [5]: 0.153 nM
T cell activation IC50, PBMC with HCC1954 cells [5]: 0.027 nM
EC50 [9]: 5.35 nM
EC50 [10]: 1.87 nM
EC50 [14]: 2.02 nM
EC50 [15]: 1.34 nM
EC50 [16]: 17.3 nM
EC50 [24]: 97.3 nM
EC50 [25]: 4.55 nM
